Each block holds one molecule with its values, some of them ahead of it. No end group written: not given here.
Molecular target: T1, ER (Homo sapiens, UniProt P03372, G400V)
T1 construct: Full-length ER and TR2 in eukaryotic expression vectors (pSG5-ER and pCMV-TR2) were co-transfected; expressed in transfected cells; host or cells: PC-3 and H1299 (pSG5-ER transfected)
T1 sequence (P03372 1-595 G400V): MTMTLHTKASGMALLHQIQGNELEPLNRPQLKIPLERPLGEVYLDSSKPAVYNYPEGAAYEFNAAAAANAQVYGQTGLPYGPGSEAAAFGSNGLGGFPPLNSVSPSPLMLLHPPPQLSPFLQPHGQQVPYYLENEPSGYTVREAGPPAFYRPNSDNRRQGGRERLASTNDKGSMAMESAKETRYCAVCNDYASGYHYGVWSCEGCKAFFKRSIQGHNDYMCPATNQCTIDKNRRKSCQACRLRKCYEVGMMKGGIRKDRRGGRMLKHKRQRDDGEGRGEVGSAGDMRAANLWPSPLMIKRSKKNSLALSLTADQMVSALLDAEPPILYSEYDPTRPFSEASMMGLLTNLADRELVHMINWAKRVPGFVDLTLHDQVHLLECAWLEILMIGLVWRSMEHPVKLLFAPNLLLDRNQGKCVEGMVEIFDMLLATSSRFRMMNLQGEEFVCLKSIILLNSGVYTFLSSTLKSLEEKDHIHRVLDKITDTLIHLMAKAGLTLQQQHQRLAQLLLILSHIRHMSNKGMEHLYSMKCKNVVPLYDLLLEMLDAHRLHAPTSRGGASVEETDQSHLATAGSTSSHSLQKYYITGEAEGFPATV
Experiment: ER-mediated transactivation reporter assay (ERE-CAT / ERE-Luc)
Assay type: cell-based
Conditions: for Activity ER (effect of regulator on transcription activity): Table 5
Experimental: Transfections and chloramphenicol acetyltransferase (CAT) assays were performed as described previously. Yeh, & Chang, Proc. Natl. Acad. Sci. 93, 5517-5521 (1996). Briefly, 4×10^5 cells were plated in 60-mm dishes and cultured for 24 h, and then the medium was changed to phenol red free DMEM with 5% charcoal-stripped FCS 2 h before transfection. The cells were co-transfected with TR2 and/or ER expression plasmids with 2 μg of TR2-TK-CAT reporter or 1 μg of ERE-CAT reporter gene plasmid, as indicated in the Figures, by using the calcium phosphate precipitation method. A β-gal actosidase expression plasmid, pCMV-β-gal, was transfected in all transfections as an internal control for normalizing transfection efficiency. The total amount of DNA was adjusted up to 10.5 μg with parent vectors, pSG5 or pCMV in each transcriptional activity assay. […] The cells were then harvested and whole cell extracts were used for CAT assay. The CAT activity was quantitated by Phosphorlmager (Molecular Dynamics). Data are presented as means±S.D. of at least three independent experiments.
Transfections and chloramphenicol acetyltransferase (CAT) assays were performed using the calcium phosphate precipitation method, as described previously (Yeh, S. et al. (2000) Proc. Natl. Acad. Sci. USA 97, 11256-61). CAT reporter plasmids containing one copy of estrogen response element (ERE-CAT), or mouse mammary tumor virus (MMTV-CAT) were used as indicated. Also, a β-galactosidase expression plasmid, pCMV-β-gal, was used for transfection efficiency.
H1299 and MCF-7 cells were maintained in Dulbecco's modified eagle medium (DMEM) containing penicillin (25 units/ml), streptomycin (25 μg/ml), and 10% fetal calf serum (FBS). Transfections were performed using the calcium phosphate precipitation method, as described previously (Lee, Y. et al. (1999) Proc. Natl. Acad Sci. USA. 96(26) 14724-9). Briefly, 3×10^5 cells were plated on 60-mm dishes for 24 h before transfection, and the medium was changed to DMEM with 10% charcoal/dextran-stripped FBS. H1299 cells were transfected with an ER expression plasmid (pSG5-ER or pCMV-mERβ, ERE-chloramphenicol acetyltransferase (ERE-CAT) or pSG5-PR and MMTV-Luciferase reporter plasmid, and a TR4 expression plasmid (pCMV-TR4) ERZ-CAT Bradshaw et al., (1991) J. Biol. Chem. 266:16684-16690 and pCMVB-gal and PSV-RL from promega, all of which are herein incorporated by reference at least for material related to plasmids and assays, including sequence.) MCF-7 cells were only transfected with ERE-CAT reporter and TR4 expression plasmid. For all transfection experiments, pCMVβ-gal (CAT assay) or pSV-40 RL (Luciferase assay) was used as an internal control for transfection efficiency and the total amount of transfected DNA was adjusted to 12 μg with pCMV. […] After another 24 h, the cells were harvested for CAT assay or Luciferase assay. The CAT activity was visualized by Phosphorlmager (Molecular Dynamics) and quantitated by IMAGEQUANT software (Molecular Dynamics). The luciferase activity was determined by the Luminometer (Turner Designs).

Effect on TR2-mediated suppression of ER transcription (ERE-CAT) (MCF7-TR2 cells, E2 and doxycycline): reversing this suppression
ER transcription (ERE-luciferase) (MCF7 cells, increasing amounts of plasmid): enhance ER transcription
Molecule: ER-#6: interaction blocker, ER fragment aa 312-340, as HA-tagged peptide, expression plasmid or cleaved peptide (ADQMVSALLDAEPPILYSEYDPTRPFSEA; also: HA tag (position not given here); UniProt P03372 312-340, looked up, fragment)

ERE-CAT activity (MCF-7-TR4 cells, 2 μg/ml Dox-induced TR4): repress
Endogenous ER-mediated CAT reporter activity (MCF-7 cells, increasing TR4): gradual decrease
Activity ER (effect of regulator on transcription activity): Down
B1: TR4: human testicular orphan nuclear receptor 4, SEQ ID NO:16; expressed from plasmid or in vitro translated (protein)
chain: MTSPSPRIQIISTDSAVASPQRIQGSEPASGPLSVFTSLNKEKIVTDQQTGQKIQIVTAVDASGSPKQQFILTSPDGAGTGKVILASPETSSAKQLIFTTSDNLVPGRIQIVTDSASVERLLGKTDVQRPQVVEYCVVCGDKASGRHYGAVSCEGCKGFFKRSVRKNLTYSCRSSQDCIINKHHRNRCQFCRLKKCLEMGMKMESVQSERKPFDVQREKPSNCAASTEKIYIRKDLRSPLIATPTFVADKDGARQTGLLDPGMLVNIQQPLIREDGTVLLATDSKAETSQGALGTLANVVTSLANLSESLNNGDTSEIQPEDQSASEITRAFDTLAKALNTTDSSSSPSLADGIDTSGGGSIHVISRDQSTPIIEVEGPLLSDTHVTFKLTMPSPMPEYLNVHYICESASRLLFLSMHRARSIPAFQGLGQDCNTSLVRACWNELFTLGLAQCAQVMSLSTILAAIVNHLQNSIQEDKLSGDRIKQVMEHIWKLQEFCNSMANWDIDGYEYAYLKAIVLFSPDHPGLTSTSQIEKFQEKAQMELQDYVQKTYSEDTYRLARILVRLPALRLMSSNITEELFFTGLIGNVSIDSIIPYILKMETAEYNGQITGVSL
E2-induced ERE-CAT activity, ERα (H1299 cells, 10 nM E2, increasing TR4 expression plasmid): suppression of the E2-induced CAT activity in a dose-dependent manner
ER transactivation (ERE-CAT) (H1299 cells, ERα, 10 nM E2, full-length or C-terminal deletion TR4): repress ER transactivation in a dose-dependent manner

B2: TR2: human testicular orphan nuclear receptor 2, 603 amino acids (protein, UniProt P13056 1-603, looked up)
chain: MATIEEIAHQIIEQQMGEIVTEQQTGQKIQIVTALDHNTQGKQFILTNHDGSTPSKVILARQDSTPGKVFLTTPDAAGVNQLFFTTPDLSAQHLQLLTDNSPDQGPNKVFDLCVVCGDKASGRHYGAVTCEGCKGFFKRSIRKNLVYSCRGSKDCIINKHHRNRCQYCRLQRCIAFGMKQDSVQCERKPIEVSREKSSNCAASTEKIYIRKDLRSPLTATPTFVTDSESTRSTGLLDSGMFMNIHPSGVKTESAVLMTSDKAESCQGDLSTLANVVTSLANLGKTKDLSQNSNEMSMIESLSNDDTSLCEFQEMQTNGDVSRAFDTLAKALNPGESTACQSSVAGMEGSVHLITGDSSINYTEKEGPLLSDSHVAFRLTMPSPMPEYLNVHYIGESASRLLFLSMHWALSIPSFQALGQENSISLVKAYWNELFTLGLAQCWQVMNVATILATFVNCLHNSLQQDKMSTERRKLLMEHIFKLQEFCNSMVKLCIDGYEYAYLKAIVLFSPDHPSLENMEQIEKFQEKAYVEFQDYITKTYPDDTYRLSRLLLRLPALRLMNATITEELFFKGLIGNIRIDSVIPHILKMEPADYNSQIIGHSI
modifications: full-length
notes: human testicular orphan nuclear receptor 2, 603 amino acids
E2-induced ER transcription (ERE-CAT) (MCF7-TR2 cells, doxycycline-induced TR2): significantly repressed
ERE-CAT activity, transfected ER (PC-3 and H1299 cells, 10 nM E2, increasing TR2 expression vector): suppression of ER transactivation in a dose-dependent manner
Endogenous ER-mediated ERE-CAT activity (T47D cells, increasing TR2 expression plasmid): repress
Activity ER (effect of regulator on transcription activity): Down
ER-mediated transcription (ERE-CAT or ERE-luciferase) (exogenous ER (PC-3, H1299) or endogenous ER (MCF7, T47D), Example 2): consistently suppressed

Reference: patent US20030235860A1, “Interactions between AR, ER, TR2, and TR4” (priority 1999, published 2003)
